This note sets out measurements from patent US20230085439A1 (UNIVERSITY OF GEORGIA RESEARCH FOUNDATION, published 2023).

Where two headings read alike, the source gives them in different places.

One experiment addresses T1, hMPV 130-BV (human metapneumovirus).
T1 construct: also called hMPV 130-BV F; hMPV F 130-BV
The experiment is described as follows: ELISA on coated antigen, mAb titrated; EC50 list entry 5 of 7 (marker of hMPV 130BV).

Experiment [1] concerns the target T2, hMPV A1 F (human metapneumovirus).
In experiment [2] the target is T3, hMPV B2 F (human metapneumovirus).
Another experiment concerns the target hMPV B2 F-GCN4 dFP 6R (human metapneumovirus).
The target in experiment [3] is T4, hMPV A2 F (human metapneumovirus).
Experiment [4] deals with T5, hMPV B1 F (human metapneumovirus).
For experiment [5], the target named is hMPV F protein of hMPV B2 strain TN/93-32 (human metapneumovirus). The experiment is described as follows: cell-based or functional assay.
Experiment [6] concerns the target hMPV F protein of hMPV A2 strain CAN/97-83 (human metapneumovirus, UniProt Q6WB98 19-539). Kind of experiment: cell-based or functional assay.
Experiment [7] has as its target T6, monomeric hMPV B2 F protein treated with trypsin (human metapneumovirus). Kind of experiment: ELISA on coated antigen, mAb titrated; panel hMPV B2 F monomer (trypsin), key 2. On the technique in general: In an ELISA, binding on a coated surface is turned into a signal by an enzyme label.
Experiment [8] concerns the target T7, trimeric hMPV B2 F protein treated with trypsin (human metapneumovirus). Kind of experiment: ELISA on coated antigen, mAb titrated; panel hMPV B2 F trimer (trypsin), key 2.
Experiment [9] deals with T6, monomeric hMPV B2 F protein treated …. The experiment is described as follows: ELISA on trypsin-treated monomeric and trimeric hMPV B2 F.
For experiment [10], the target named is T5, hMPV B1 F. The experiment is described as follows: ELISA on coated antigen, mAb titrated; EC50 box, key 3.
The target of experiment [11] is T2, hMPV A1 F. The experiment is described as follows: ELISA on coated antigen, mAb titrated; EC50 box, key 1.
The target of experiment [12] is T4, hMPV A2 F. Kind of experiment: ELISA on coated antigen, mAb titrated; EC50 box, key 2.
Experiment [13] has as its target T3, hMPV B2 F. The experiment is described as follows: ELISA on coated antigen, mAb titrated; EC50 box, key 4.
Experiment [14] addresses T7, trimeric hMPV B2 F protein treated with …. Kind of experiment: ELISA on coated antigen, mAb titrated; panel hMPV B2 F trimer (trypsin), key 1.
In experiment [15] the target is T6, monomeric hMPV B2 F protein treated …. The experiment is described as follows: ELISA on coated antigen, mAb titrated; panel hMPV B2 F monomer (trypsin), key 1.

B1: MPE8 (antibody, V domains shown)
VH: EVQLVESGGGLVKPGGSLRLSCAASGFTFSSYSMNWVRQAPGKGLEWVSSISASSSYSDYADSAKGRFTISRDNAKTSLFLQMNSLRAEDTAIYFCARARATGYSSITPYFDIWGQGTLVTVSS
VL: QSVVTQPPSVSGAPGQRVTISCTGSSSNIGAGYDVHWYQQLPGTAPKLLIYDNNNRPSGVPDRFSASKSGTSASLAITGLQAEDEADYYCQSYDRSLSGVFGTGTKVTVL
notes: also called mAb MPE8; MPE8 antibody
For orientation: EC50 means the concentration needed to bring the measured effect to its halfway point. Consider B1, for which the EC50 with hMPV 130-BV came to 1.8 µg/mL; with hMPV A1 F [1], 14 µg/mL; with hMPV B2 F [2], 36 µg/mL; with hMPV B2 F-GCN4 dFP 6R, 5.9 µg/mL; with hMPV A2 F [3], 4.3 µg/mL; with hMPV B1 F [4], 3.1 µg/mL. Further, the midpoint of the response with hMPV B2 F GCN4, the EC50, lay at 4.7 µg/mL.

B2: MPV458 (antibody, V domains shown)
VH: QGKLVESGGGVIQPGRSLRLSCAASGFDFSRYGLHWVRQAPGKGLEWVAVIVYAGSNKYYADSVKGRFTISKDNSKNTMHLQMSDLRTEDTAVYYCARDQAFDLWGQGTMVTVSS
VL: DIQMTQSPASLSASVGDRVTITCQASQGISRSVNWYQQKPGKAPKLLIFDASHLERGVPSRFSGSGYGTDFTFTISSLQPEDIATYYCQQYDNLRISFGQGTRLEIK
notes: also called mAb MPV458; MPV458 IgG
In the case of B2, the EC50 was determined as 0.24 µg/mL with hMPV 130-BV; 0.75 µg/mL with hMPV A1 F [1]; 0.6 µg/mL with hMPV B2 F [2]; 0.37 µg/mL with hMPV B2 F-GCN4 dFP 6R; 0.39 µg/mL with hMPV A2 F [3]; 0.39 µg/mL with hMPV B1 F [4]. The values for the EC50 (with hMPV B2 F GCN4; in experiment [7]; in [8]) were 0.2 µg/mL, 0.25 µg/mL and 0.9 µg/mL, respectively. Besides, the “50% inhibitory concentration (IC50), plaque neutralization” value was 0.49 µg/mL in experiment [5] and 0.033 µg/mL in experiment [6]. For the same molecule, in experiment [9], the “fold EC50, monomeric against trimeric hMPV B2 F” value was approximately 4 fold lower.

B3: MPV364 (antibody, V domains shown)
VH: QVQLVQSGAEVKKPGASVKVSCKASGYTFTHDSIHWVRQAPGQRLEWMGWINVGNGDTKSSQKFQDRLTITRDTSANTAYMEVRSLKYEDTAMYFCARVDQYCIGGVCYGGKNWFDPWGQGTLVTVSS
VL: SYELNQPPSVSVAPGQTAMITCGGYYVGVKSLHWYQQKAGQAPVLVVHDDSDRPSGIPERFSGSKSGDTATLIISRVEAGDEADYYCQVWDRDSDHPYVFGTGTTVTVL
notes: also called mAb MPV364; hMPV364
As to B3, the EC50 with hMPV B1 F [10] turned out to be 0.2 µg/mL; with hMPV A1 F [11], 0.25 µg/mL; with hMPV A2 F [12], 0.44 µg/mL. Also, the “IC50, plaque neutralization” value in [5] was 0.018 µg/mL; in [6], 0.008 µg/mL.

B4: MPV196 (antibody, V domains shown)
VH: QVQLQQWGAGLLKPSETLSLTCAVYGGSFSGYSWTWIRQPPGKGLEWIGEINHSGSTNYNPSLKSRVTISIDTSRNQFSLKLISVTAADTAVYYCARGVRGGYNLWHFDVWGQGTLVTVSS
VL: SYELSQSPSVSVSPGQTARITCSGDKLGNKYASWYQQKPGQSPVLVIYQDDKRPSGIPERFSGSNSGNTATLTIGGTQAMDEADYSCQAWDGRTAVVFGGGTKLTVL
notes: also called mAb MPV196
Consider B4, for which the EC50 with hMPV B2 F [13] amounted to 0.136 µg/mL; in the experiment with hMPV B1 F [10] it was 0.077 µg/mL; in experiment [14], 0.17 µg/mL; in the experiment with hMPV 130-BV, 0.14 µg/mL; with hMPV A1 F [1], 0.27 µg/mL; with hMPV B2 F [2] it was 0.44 µg/mL. The EC50 turned out to be 0.15 µg/mL with hMPV B2 F-GCN4 dFP 6R; 0.17 µg/mL in the experiment with hMPV A2 F [3]; 0.12 µg/mL with hMPV B1 F [4]; 0.18 µg/mL in the experiment with hMPV B2 F GCN4; 0.15 µg/mL in the experiment with hMPV A1 F [11]; 0.091 µg/mL in experiment [15]. This molecule returned an EC50 with hMPV A2 F [12] of 0.204 µg/mL.

B5: MPV314 (antibody, V domains shown)
VH: QVQLVQSGGGVVQPGRSLRLSCAASGFSFSDYGMDWVRQAPGKGLEWVAVISYDGSNQYYADSVKGRFTVSRDNSKNTVYLQMNSLRAEDTAVYFCAKDESRRYYYSSGIHSHWGQGTLVTVSS
VL: DIVMTQSPATLSVSPGERATLSCRASQSVSRNLAWYQQKPGQAPRLLIFGASTRATGIPARFSGSASGTEFTLTISSLQSEDFAVYYCHQYNYWPPGTFGQGTRLEIK
notes: also called mAb MPV314
Turning to B5, the EC50 with hMPV B1 F [10] worked out at 0.039 µg/mL; in the experiment with hMPV A1 F [11], 0.096 µg/mL; in the experiment with hMPV A2 F [12] it was 0.102 µg/mL.

B6: MPV201 (antibody, V domains shown)
VH: QVQLVQSGGGGVQPGRSLRLSCAASGFIFSDYGMHWVRQAPGKGLEWVAVISYDGSNQYYADSVKGRFTISRDNSRNTLYLQMNSLRVEDTAVYYCAKDQGRRYYYSSGYLDYWGQGTLVTVSS
VL: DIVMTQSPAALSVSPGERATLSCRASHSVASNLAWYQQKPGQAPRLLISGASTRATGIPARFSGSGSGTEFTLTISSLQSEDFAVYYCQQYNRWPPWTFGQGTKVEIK
notes: also called mAb MPV201
As for B6, the EC50 with hMPV B2 F [13] turned out to be 0.089 µg/mL; with hMPV B1 F [10] it was 0.042 µg/mL; with hMPV A1 F [11] it was 0.104 µg/mL; in the experiment with hMPV A2 F [12] it was 0.14 µg/mL.
